According to the supplement of paper PMC9170038:

System: MS2 coat protein
Assay: apparent KD of MS2 coat protein; higher = weaker reporter binding
Conditions: Eterna round: R107
Method in brief: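 Titrations with SNAP-549-labelled MS2 coat protein ran in twofold steps from 0.7 or 1.5 nM to 3 µM, each step taking 0.8–1.5 h at the start and 10–20 min toward the end. The targets were designed RNA switches transcribed on-chip from Illumina sequencing clusters, held in 100 mM Tris-HCl pH 7.5, 80 mM KCl, 4 mM MgCl2, without or with constant ligand. Apparent KD was taken per design as the median of normalised cluster binding-curve fits.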

[1] = input ligand: theophylline 20 uM
[2] = input ligand: tryptophan 2.4 mM
[3] = input ligand: theophylline 2 mM

| Sequence | apparent KD of MS2 coat protein (input ligand: arginine 13.2 mM) | apparent KD of MS2 coat protein [1] | apparent KD of MS2 coat protein [2] | apparent KD of MS2 coat protein (input ligand: none) | apparent KD of MS2 coat protein [3] |
| --- | --- | --- | --- | --- | --- |
| CUCCCACUAUCUGAUACCAGAGGAUAAACGUAGACUGGGAACAUGAGGAUCACCCAUGUCCUCCCUUGGCAGCAGGACUUAUCUC [theeternabot_exclusion_MS2_Theo_B_29] | 0.0222 µM | 0.0299 µM | 0.0222 µM | – | – |
| GCGAUGGAGCGAAGGAGCGUGCUAGUACAUGAGGAUCACCCAUGUGAGUCGCAGCGCUAAGCACAGGUAGGUCGCGCUCCAUCGC [EAB NP+V+V2 #12] | 0.0311 µM | 0.0268 µM | 0.0405 µM | 0.0484 µM | 0.0497 µM |
| AGACUUCGCAUAGGAAAACUAUGUGAAGUCCGAGGACCGGUACGGCCGCCACUCGUCCUCACAUGAGGAUCACCCAUGUAAAUAA [#OpenEnded 2 #CuTurnoff #Tail] | 0.0227 µM | – | – | – | 0.0245 µM |
| UCGCAUUGCUGCGAUACCAGACAUGAGGAUCACCCAUGUACCAAGAAAACGUACAUAAAUGUCCCUUGGCAGCGCAGCAAUGCGU [MAT - Exclusion Theophlline B - Mod of Eli - D26] | 0.148 µM | 0.656 µM | 0.631 µM | – | – |
| AAACGUUGCUGCGAUACCAGACAUGAGGAUCACCCAUGUACCAAGGUACGAAAAUAACAUGUCCCUUGGCAGCGCAGCAACGAAA [MAT - Exclusion Theophlline B - Mod of Eli - D6] | 0.0157 µM | 0.0297 µM | 0.0145 µM | – | – |
| AAAUAAAUAACUGAUACCAGUGUACUGACAUGAGGAUCACCCAUGUUGGGUUUGGUUGUACACCCUUGGCAGCAGAAAUAUAAAA [test (nupak] | 0.0154 µM | 0.0206 µM | 0.0151 µM | – | – |
| UUAUAAGUACCGGUCCUCAGAUCCUCAUGACGAGGACCGGUACGGCCGCCACUCGAAACAUGAGGAUCACCCAUGUAAUAACAUU [Brourdmod19] | 0.0189 µM | 0.0288 µM | – | – | 0.0256 µM |
| AAGACCAGGAGGUGAUCCUAACUGGUCCAACGAGGACCGGUACGGCCGCCACUCGAAUAAACAUGAGGAUCACCCAUGUAAUAAU [T''-M-T'-T-MS2] | 0.0587 µM | 0.101 µM | – | – | 0.0901 µM |
| AAUAACAUGAGGAUCACCCAUGUAAAAGAUACCAGAUGCAUGAUGAUCCCUUGGCAGCUUAAAACGCGAUUGGAAACAAUCGCGA [Mat - Same State Theophlline A - Mod of Eli - D13] | 0.0461 µM | 0.0934 µM | 0.0308 µM | – | – |
| CGCCCAGUUACGGCCGCCACUUCGAUGGCAAAUGUCGAGCCUCCACAUGAGGAUCACCCAUGUCGAAGGACCGGGUACUGCUUGC [theeternabot_sameState_MS2_Trp_B_17] | 0.0294 µM | 0.0444 µM | – | – | 0.038 µM |
| ACAUGAGGAUCACCCAUGUAGAAAGAUCCUCGAGGACCGGUACGGCCGCCACUCGAGUGGCAGUGUGUGCAGAAAAUGCGCGCGC | 0.0286 µM | 0.0922 µM | 0.0142 µM | 0.0509 µM | 0.0814 µM |
| GCACGACAUGAGGAUCACCCAUGUGCAGAUACCAGUAAUGUAUGUUACCCUUGGCAGCUGAGUAGGUCUGGAGGGCUAUAGGUAA [Same State Theophylline A GF12] | 0.0106 µM | 0.018 µM | 0.0137 µM | – | – |
| UUGGGUUUGUGAAGGAGCGGGAAAGUUAUAUAGUUAAUCCUAACAUGAGGAUCACCCAUGUCCCAGGUAGGUCGCGCGGGUUUGG [12.P] | 0.0327 µM | 0.0606 µM | 0.0473 µM | 0.0475 µM | 0.055 µM |
| UAAACUACACAUGAGGAUCACCCAUGUGGCCGAGGACCGGUACGGCCGCCACUCGUGUGUUAAUAAAAGAACUGCAAGGUUCUGU [Laorat] | 0.0687 µM | 0.419 µM | – | – | 0.552 µM |
| AGACGAGCAAUCAACGGGCGUUUCGUGACGCGAGGACCGGUACGGCCGCCACUCGAGUCUGGACAUGAGGAUCACCCAUGUUAUG [theeternabot_exclusion_MS2_Trp_A_46] | 0.0328 µM | 0.023 µM | 0.0222 µM | 0.022 µM | 0.041 µM |
| UGUACCUAGUCGGCCGCCACUCAAUAAUGAGAGGAUCACCCUCAUAAACGAGUCAAAGACUCGAUGAGGACCGGGACUAGGUACU [Palindromic MS2 2 #AlternativeMS2 #Palindrome #StaticStem] | 0.0594 µM | 0.0732 µM | 0.0211 µM | 0.053 µM | 0.0727 µM |
| AGAACAAAACUAAAUAAACAACUGGGUGAUACCAGCACAUGUGCGUGCCCUUGGCAGCAUCCGGCCACAUGAGGAUCACCCAUGU [Inarar] | 0.0426 µM | 0.0956 µM | 0.0627 µM | – | – |
| UGUAACAUGAGGAUCACCCAUGUAAGUGAUACCAGAUAAGUAGUAGUCCCUUGGCAGCAUAUUGGGCAAGUGUAUAGUCUAUACG [Same State - Theophylline A (Freestyle 6)] | 0.043 µM | 0.0653 µM | 0.0483 µM | – | – |
| UUAUAAGUACCGGUCCUCAGAUCCUCAUGACGAGGACCGGUACGGCCGCCACUCGAAACAUGAGGAUCACCCAUGUAAUAAUAUC [Brourdmod09] | 0.0206 µM | 0.0566 µM | – | – | 0.0593 µM |

| Sequence | apparent KD of MS2 coat protein (input ligand: arginine 13.2 mM) | apparent KD of MS2 coat protein [1] | apparent KD of MS2 coat protein [2] | apparent KD of MS2 coat protein (input ligand: none) | apparent KD of MS2 coat protein [3] |
| --- | --- | --- | --- | --- | --- |
| GUUAUAACAAAAGUUGUAACAGUGGGUGAACGAGGACCGGUACGGCCGCCACUCGGACAUGAGGAUCACCCAUGUCCAUGUGAAA [AstrosExyTryA#15] | 0.0141 µM | 0.0182 µM | – | – | 0.0216 µM |
| CAAAUAGACCACGAUACCAGAACACAAGGAGUAAUAUCAAACAUGAGGAUCACCCAUGUCUUCCCUUGGCAGCGUAGCACGGAGU [theeternabot_exclusion_MS2_Theo_B_23] | 0.0135 µM | 0.0152 µM | 0.011 µM | – | – |
| UUAAUCUUAUAUGAAAACAUAUAAGCAGAAGGAGCGUGAUAAAACACAGGUAGGUCGCUGAAGGGAACAUGAGGAUCACCCAUGU [AstrosSSArgA#4] | 0.0227 µM | 0.0338 µM | 0.0284 µM | 0.0224 µM | 0.0306 µM |
| AAUGUAUGGCACAUGAGGAUCACCCAUGUGCGAGGACCGGUACGGCCGCCACUCGGUCGUGGGUUCUUAUUACUAUACAUUAAUG [XTryp A #14] | 0.0114 µM | 0.0128 µM | – | – | 0.0116 µM |
| CAGGUCAGGGCGGCCGCCACUGUGGCUACGGUACAUGAGGAUCACCCAUGUUUGUGGUUGAUCUACAGGACCGGGCCCUAACACG [Beabe] | 1.08 µM | 0.214 µM | 0.126 µM | 0.43 µM | 0.757 µM |
| UGUUUGGUGCGCGAGUGUUGGAUAAUUGAUACCAGUGUAGAUGUGCGCCCUUGGCAGCGAAUCCUAACAUGAGGAUCACCCAUGU [5.Y] | 0.0382 µM | 0.0595 µM | 0.0418 µM | – | – |
| UGUAUGUGAUCUGAUACCAGCGAUGAUAACCUGAGGAUCACCCUGGUAUGGCGAAAGCCUCGCCCUUGGCAGCAGAUCGCAUACU | 0.184 µM | 0.402 µM | 1.21 µM | 0.747 µM | 0.0307 µM |
| GAACAUGAGGAUCACCCAUGUGAGAAUGAUACCAGUAGAAGAAGAUGCCCUUGGCAGCGUGCGUGAGGAUCACCCAUGUAGGAGG [e-theoA-0] | 0.03 µM | 0.0341 µM | 0.0259 µM | – | – |
| AACAGUUGGUCGGCCGCCACUACAUGAGGAUCACCCAUGUAGCGCGUUCUGCUCCAGGGCUCAUCUAGGACCGGGACACGAGUGU [Raa] | 0.0122 µM | 0.0214 µM | – | – | 0.0145 µM |
| CGACUGUAAAGUCGACCGGUCAUCAAUAAUCGAGGACCGGUACGGCCGCCACUCGAUGUGAUUUCACAUGAGGAUCACCCAUGUA [Tryptophan A 17] | 0.0241 µM | 0.0263 µM | – | – | 0.0291 µM |
| AUGUCCUAAACGGCCGCCACUUACAUGAGGAUCACCCAUGUUUACCGAUAUGGUUGUUGCUUUCCAAGGACCGGGUUUAAUCUGC [theeternabot_exclusion_MS2_Trp_B_49] | 0.0131 µM | 0.0149 µM | – | – | 0.0127 µM |
| UAAUCAGUGCCGGUUCUCGGAUCCUCAUGUCGAGGACCGGUACGGCCGCCACUCGGAACAUGAGGAUCACCCAUGUAAUAAUAAU [#10 Exclusion Tryptophan A] | 0.0407 µM | 0.101 µM | – | – | 0.162 µM |
| UAAUGCAGGUCGGCCGCCACUACACACAUGAGGAUCACCCAUGUAGUUACUGGGUGAAGUGGCAGUAGGACCGGGACCUGCAUAA [Brourd01] | 0.185 µM | 0.467 µM | – | – | 0.873 µM |
| AUACAUGAGGAUCACCCAUGUCAUUCAGAAGGAGCGUCAUUUUAGACAGGUAGGUCGCUGUUAUUGGUAUUAUACUUUAUGUUUA [JR_ExcArginiA_Sub024] | 0.0201 µM | 0.0349 µM | 0.0289 µM | 0.0229 µM | 0.0247 µM |
| GCUGCUUUGGGAAGGAGCGCUGCGGUAUUGUGGCGGACAUGAGGAUCACCCAUGUGCCUGCAGCAGGUAGGUCGCUUAGGGCAGC [EAP NP+V+V2 #17] | 0.054 µM | 0.092 µM | 0.0584 µM | 0.0688 µM | 0.0798 µM |
| GCUGCCAUACGAAGGAGCGCUGUUGCAAUGAGGCGAACAUGAGGAUCACCCAUGUGGCAAAAGCAGGUAGGUCGCGUAUGGCAGC [EAB #17] | 0.0204 µM | 0.0293 µM | 0.0202 µM | 0.0205 µM | 0.0234 µM |
| UCGUGAGUUUCGGAUACCAGUGUUGUCGAUACAUGAGGAUCACCCAUGUUAGAGGAUGUACACCCUUGGCAGCCGGCUGUGGCGG [lplmullin] | 0.0158 µM | 0.0161 µM | 0.0173 µM | – | – |
| GGGUACAUCGCGGCCGCCACUUAUGUAAAUACAUGAGGAUCACCCAUGUCGAUGGAGACAUCGGAAAGGACCGGGUGAUGUACCG | 0.13 µM | 0.271 µM | – | – | 0.262 µM |
